Consider 2 molecules from patent publication JP2002536968A (dated 2002).

The target in one test is HUVEC上の細胞表面発現KDR (human) (UniProt P35968). Nature of the test: cell-based or functional assay.
Test [1] concerns the target T1, 可溶性融合タンパク質 KDR-AP (human, UniProt P35968 20-764).
T1 construct: extracellular domain; Made in NIH3T3 cells; also called KDR-アルカリ性ホスファターゼ融合タンパク質; 固定化KDR; not shown: human placental alkaline phosphatase (AP), from vector AP-tag
Nature of the test: BIAcore, KDR-AP immobilised (refers to Table 2). In general terms: SPR reads the build-up and loss of mass on a sensor chip optically.

The target of test [2] is T1, 可溶性融合タンパク質 KDR-AP. Kind of test: BIAcore, KDR-AP immobilised, antibody injected at 25-200 nM.
Test [3] deals with T1, 可溶性融合タンパク質 KDR-AP. Kind of test: competitive VEGF binding ELISA: antibody mixed with KDR-AP, then on VEGF165-coated plate. Background: ELISA stands for enzyme-linked immunosorbent assay.
Test [4] has as its target T1, 可溶性融合タンパク質 KDR-AP. Kind of test: BIAcore, KDR-AP immobilised, soluble scFv injected.
Test [5] has as its target T1, 可溶性融合タンパク質 KDR-AP. Nature of the test: competitive VEGF blocking ELISA: scFv mixed with KDR-AP, then on VEGF165-coated plate.
The target in test [6] is T1, 可溶性融合タンパク質 KDR-AP. Nature of the test: direct binding ELISA, soluble scFv on KDR-coated plate; concentration for 50% of maximal binding.

T1 sequence (P35968 20-764): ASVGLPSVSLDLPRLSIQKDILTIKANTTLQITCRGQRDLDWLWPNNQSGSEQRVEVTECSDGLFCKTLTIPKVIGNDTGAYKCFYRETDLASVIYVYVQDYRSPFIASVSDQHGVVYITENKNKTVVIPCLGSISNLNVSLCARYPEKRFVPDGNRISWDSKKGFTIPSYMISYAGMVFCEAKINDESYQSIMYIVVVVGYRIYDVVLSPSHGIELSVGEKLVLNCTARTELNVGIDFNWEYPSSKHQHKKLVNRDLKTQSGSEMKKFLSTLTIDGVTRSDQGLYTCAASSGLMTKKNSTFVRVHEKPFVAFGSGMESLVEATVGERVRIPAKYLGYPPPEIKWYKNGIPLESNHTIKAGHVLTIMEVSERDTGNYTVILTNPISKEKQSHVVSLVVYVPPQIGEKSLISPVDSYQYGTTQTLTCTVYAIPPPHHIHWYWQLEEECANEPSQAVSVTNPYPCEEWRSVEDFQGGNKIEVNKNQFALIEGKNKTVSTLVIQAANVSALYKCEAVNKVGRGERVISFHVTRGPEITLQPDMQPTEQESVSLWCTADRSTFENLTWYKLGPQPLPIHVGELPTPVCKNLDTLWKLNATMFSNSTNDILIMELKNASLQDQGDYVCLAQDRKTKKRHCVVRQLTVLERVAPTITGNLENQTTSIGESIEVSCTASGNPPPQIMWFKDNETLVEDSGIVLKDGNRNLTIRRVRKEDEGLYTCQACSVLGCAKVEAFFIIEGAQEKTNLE

B1: キメラ抗KDR抗体 c-p1C11 (antibody, from another filing)
scFv: QVKLQQSGAELVGSGASVKLSCTTSGFNIKDFYMHWVKQRPEQGLEWIGWIDPENGDSDYAPKFQGKATMTADSSSNTAYLQLSSLTSEDTAVYYCNAYYGDYEGYWGQGTTVTVSSGGGGSGGGGSGGGGSDIELTQSPAIMSASPGEKVTITCSASSSVSYMHWFQQKPGTSPKLWIYSTSNLASGVPARFSGSGSGTSYSLTISRMEAEDAATYYCQQRSSYPFTFGSGTKLEIK
For the molecule B1, the HUVECのVEGF誘導性有糸分裂誘発の50%を抑制するのに必要な抗体濃度 ([3H]-TdR) with HUVEC上の細胞表面発現KDR (human) turned out to be 0.8 nM. Also, the fold higher affinity than parent scFv p1C11 with 可溶性融合タンパク質 KDR-AP [1] was 2.5 fold. In addition, the Kd – broadly, the free concentration of one partner at which half of the binding sites on the other are occupied at equilibrium, for simple one-to-one binding – with 可溶性融合タンパク質 KDR-AP [2] came to 0.82 nM. Besides, the IC50 (commonly the concentration that gives 50% inhibition) with 可溶性融合タンパク質 KDR-AP [3] is 0.8 nM.

B2: scFv p1C11 (scFv)
chain: B1 scFv
As to B2, in the test with 可溶性融合タンパク質 KDR-AP [4], the Kd worked out at 2.1 nM. The values for the IC50 with 可溶性融合タンパク質 KDR-AP [5] and with 可溶性融合タンパク質 KDR-AP [3] were 3 nM and 2 nM, respectively. Moreover, in the test with 可溶性融合タンパク質 KDR-AP [6], the EC50 (as a rule, the concentration needed to bring the measured effect to its halfway point) stood at 0.3 nM.
